Measured values reported in patent publication US20220089765A1, “CD31 COMPETITORS AND USES THEREOF” (ENCEFA, priority 2019, published 2022).
Where a chain is given by its changes, count along the chain named.

B1: ABBV-8E12: monoclonal antibody whose brain/plasma ratio in humans is cited (antibody, chains of the INN, looked up, V domains shown)
VH: EVKVVESGGGLVQPGGSMKLSCVVSGFTFSNYWVNWVRQAPGKGLEWVAQIRLKSDNYATHYEESVKGRFTISRDDSKSSVYLQMNNLRAEDSGIYYCTNWEDYWGQGTTVTVSS
VL: DIVLTQSPDSLAVSLGERATISCRASQSVSTSRYSYIHWYQQKPGQPPKLLIKYASNLESGVPSRFSGSGSGTDFTLNIHPLEPEDFATYYCHHSWEIPLTFGQGTKLEIK
B2: Clone C05: anti-human CD38 antibody, HCVR SEQ ID NO: 34 and LCVR SEQ ID NO: 40 (antibody, V domains shown)
VH: EVQLVESGGSLVKPGGSLRLSCAASGFTFSNNYMNWVRQAPGKGLEWISSISGSSRYISYADFVKGRFTISRDNAKNSLYLQMNSLRAEDTAVYYCVRSSSSYYYSGNGMDVWGRGTLVTVSS
VL: QSVLTQPASVSGSPGQSITISCAGTSSDVGGSSYVSWYQQHPGKAPKLMIYYDSYRPSGVSNRFSGSKSGNTASLTISGLQAEDEADYYCSSNTYYSTRVFGGGTKL
modifications: HCVR C05; LCVR C05/C06
B3: Clone D07: anti-human CD38 antibody, HCVR SEQ ID NO: 37 and LCVR SEQ ID NO: 42 (antibody, V domains shown)
VH: B2 VH with N32S, Y33A, S50Y, Y57D, N108S
VL: B2 VL with S32N
modifications: HCVR D07; LCVR D07/D10
B4: Clone D06: anti-human CD38 antibody, HCVR SEQ ID NO: 36 and LCVR SEQ ID NO: 41 (antibody, V domains shown)
VH: EVQLVESGGSLVKPGGSLRLSCAASGFTFSNYDMNWVRQAPGKGLEWISYIYGSSRDISYADFVKGRFTISRDNAKNSLYLQMNSLRAEDTAVYYCVRSSGYYFGYGMDVWGRGTLVTVSS
VL: B2 VL with S33Y, Y52S, Y95A
modifications: HCVR D06; LCVR D06
B5: Clone D10: anti-human CD38 antibody, HCVR SEQ ID NO: 38 and LCVR SEQ ID NO: 42 (antibody, V domains shown)
VH: B2 VH with N32S, Y33A, Y57D, S59Y
VL: B2 VL with S32N
modifications: HCVR D10; LCVR D07/D10
B6: Clone C06: anti-human CD38 antibody, HCVR SEQ ID NO: 35 and LCVR SEQ ID NO: 40 (antibody, V domains shown)
VH: B2 VH with N32S, Y33A, Y57N, S59Y, S101Y, Y103S, Y105G
VL: B2 VL
modifications: HCVR C06; LCVR C05/C06

Columns and labels:
[1] = system: dopaminergic neurons of the right substantia nigra pars compacta; experiment: 6-OHDA mouse model, number of DA (TH+) neurons; type: in vivo, mice
Method: We aimed at determining whether B08 or D06 anti-CD38 antibodies were neuroprotective in vivo against neurodegeneration induced by oxidative stress. Mouse were administered with 6-hydroxydopamine (6-OHDA) in the right striatum. Since 6-OHDA is an analogue of dopamine, it is transported in dopaminergic neurons through the dopamine transporter, resulting in a specific degeneration and loss of dopaminergic neurons of the right substantia nigra pars compacta. It has been extensively used as a test system for novel symptomatic agents and for assessment of neuroprotective and neurorepair strategies (Galindo et al., 2014. In Kostrzewa (Ed.), Handbook of neurotoxicity (1st Ed., pp. 639-651). New York: Springer-Verlag). Since 6-OHDA is injected unilaterally in the right striatum, left striatum remains unaffected and each mouse is its own control.
Two in vivo mouse models were used: the 6-OHDA mouse model and the MPTP mouse model. For the 6-OHDA mouse model, the intoxication protocol was based on the unilateral stereotaxic intrastriatal injection of 6-OHDA in the right striatum. Intracerebral or intravenous injections of treatments were made either the day before the surgical stereotaxic procedure, concomitantly with 6-OHDA during the surgical stereotaxic procedure, or two days after 6-OHDA injection. Animals were sacrificed 8 days after the surgical stereotaxic procedure.
For unilateral 6-OHDA mouse model, animals were anesthetized using Chloral hydrate (400 mg/kg, i.p.) and placed into a stereotactic frame adapted to mice. The injection was performed using a Hamilton syringe at the following coordinates: AP: […], ML: […], DV: […] (corresponding to the atlas of Franklin and Paxinos, 1997). A total volume of 2.5 μL containing or not 5 μg of 6-OHDA diluted in PBS in the presence or the absence of test treatments was injected. The needle was left in place for 10 min after the injection before retraction.
Mice were sacrificed by cervical dislocation, and beheaded to collect brain and blood samples. The brain was fixed in a paraformaldehyde solution (4%) during 1 day before being soaked in sucrose (30%) during 2 days and then froze at −80° C. for further analysis.
Each brain was sliced using a freezing microtome at −30° C. The thickness of each slice was 20 μm. The slicing was done around the substantia nigra (80 slices from slice 51 to 63 according to Allen Mouse Brain).
Slices were then washed out in PBS and incubated with anti-Tyrosine Hydroxylase to stain dopaminergic neurons (Abcam®) during 2 days, at 4° C., with agitation. Slices were incubated with corresponding secondary antibody in the presence of DAPI (Sigma Aldrich®) to stain cell's nuclei during 2 hours at room temperature, and mounted on gelatin-coated slides.
The slices were imaged using a Nikon TE2000 U equipped with a Hamamatsu ORCE-ER camera or with a Zeiss Axio Vert.A1 equipped with an axiocam 503 mono camera. Image analysis was done using Image J software or Zen (Zeiss®).

[2] = molecular target: CD38 (on cells of midbrain cultures from Wistar rat embryos) (UniProt Q64244); experiment: cell-based or functional assay
[3] = in humans; cited from earlier work
[4] = system: human peripheral blood mononuclear cells (PBMCs); experiment: IL-10 release from human PBMCs in vitro (ELISA); type: cell-based; details: PBMCs from 3 healthy donors; 10 μg/ml; LPS 500 ng/mL and interferon-γ 1B 100 ng/mL; 24 hours
Method: 3 healthy volunteers (Donor 1: Donor 2: Donor 3) served as blood donors. Venous blood (5 mL) was collected into heparinized tubes and immediately processed. Briefly, blood was diluted 1/1 in pre-warmed RPMI 1640 medium. PBMCs were isolated using gradient centrifugation in Ficoll solution (Sigma; 300×g, 30 min). Isolated PBMCs were re-suspended in 1 volume of pre-warmed RPMI 1640 medium and centrifuged again (300×g, 30 min). PBMCs were re-suspended in RPMI 1640 medium supplemented with 10% human serum (Sigma-Aldrich) at a concentration of 10^7 cells per mL. Cells were seeded in 96 well microplate (100 μL per well). Test compounds (10 μg/ml), LPS (500 ng/mL) and interferon-γ 1B (100 ng/mL) were added to PBMCs culture immediately after plating. After 24 hours, cell culture supernatants were collected and frozen at −80° C. for further processing.
IL-10 levels in cell culture supernatants were assayed using an ELISA human IL-10 kit (Ozyme®) according to the indications for use specified by the manufacturer.

[5] = system: midbrain dopaminergic (TH+) neurons; experiment: MPP+ intoxication model in midbrain cell cultures, survival of DA (TH+) neurons; type: cell-based, Wistar rat; details: for neuroprotective effect against MPP+-induced DA cell death, compared with reference clone HB7: 3 μM MPP+ between 5 and 7 DIV, each clone and HB7 0.5 μg/mL; for neuroprotective effect in the presence of the lysosomal exocytosis inhibitor vacuolin-1: 3 μM MPP+, test substance 1 μg/mL, vacuolin-1 10 μM
Method: For this purpose, spontaneously occurring DA cell death was prevented by a treatment combining depolarizing concentrations of K^+ (30 mM) and MK801 (5 μM), a glutamate receptor antagonist used to prevent unwanted excitotoxic insult. The cultures were then exposed to 3 μM MPP between 5 and 7 days in vitro (DIV) to achieve a loss of approximately 50% of DA neurons.
Animals were treated in accordance with the Guide for the Care and Use of Laboratory Animals (National Research Council, 1996), European Directive 86/609, and the guidelines of the local institutional animal care and use committee. Cultures were prepared from the ventral mesencephalon of gestational age 15.5 Wistar rat embryos (Janvier Breeding Center, Le Genest St Isle, France). Dissociated cells in suspension obtained by mechanical trituration of midbrain tissue pieces were seeded at a density of 1.2-1.5×10^5 cells/cm^2 onto tissue culture supports precoated with 1 mg/mL polyethylenimine diluted in borate buffer pH 8.3 as described (Michel et al., 1997. J Neurochem. 69(4):1499-507). The cultures were then maintained in N5 medium supplemented with 5 mM glucose, 5% horse serum, and 0.5% fetal calf serum, except for the first 3 DIV, when the concentration of fetal calf serum was 2.5% to favor initial maturation of the cultures (Guerreiro et al., 2008. Mol Pharmacol. 74(4):980-9). They were fed daily by replacing 70% of the medium. Routinely, mesencephalic cultures were established on Nunc 24-well culture plates (Thermofischer Scientific, Rochester, N.Y.). Note that these cultures contain tyrosine hydroxylase (TH)^+ neurons that were exclusively dopaminergic (Traver et al., 2006. Mol Pharmacol. 70(1):30-40). TH^+ neurons represented approximately 1-2% of the total number of neuronal cells present in these cultures. The evaluation of the survival of DA neurons was performed by counting cells immunopositive for TH as described (Toulorge et al., 2011. Faseb J. 25(8):2563-73).
Treatments with MPP were performed in cultures where the spontaneous death process was prevented by long-term exposure to depolarizing concentrations of K^+ (30 mM), in the presence of the glutamate receptor antagonist MK801 (5 μM) to prevent unwanted excitotoxic insults as described previously (Douhou et al., 2001. J Neurochem. 78(1): 163-74). Treatments with MPP and potential neuroprotective molecules were carried out between 5 and 7 DIV.
The cultures were fixed for 12 min using 4% formaldehyde in Dulbecco's phosphate-buffered saline (PBS), then washed twice with PBS before an incubation step at 4° C. for 24 h with the following antibodies. A monoclonal anti-TH antibody diluted 1/5000 (ImmunoStar, Inc., Hudson, Wis.) was used to assess the survival of DA neurons. Antibody was diluted in PBS containing 0.2% Triton X-100. Detection of the primary antibodies was performed with an Alexa Fluor-488 conjugate of an anti-mouse IgG antibody.

UniProt Q64244, sequence (Q64244 whole entry): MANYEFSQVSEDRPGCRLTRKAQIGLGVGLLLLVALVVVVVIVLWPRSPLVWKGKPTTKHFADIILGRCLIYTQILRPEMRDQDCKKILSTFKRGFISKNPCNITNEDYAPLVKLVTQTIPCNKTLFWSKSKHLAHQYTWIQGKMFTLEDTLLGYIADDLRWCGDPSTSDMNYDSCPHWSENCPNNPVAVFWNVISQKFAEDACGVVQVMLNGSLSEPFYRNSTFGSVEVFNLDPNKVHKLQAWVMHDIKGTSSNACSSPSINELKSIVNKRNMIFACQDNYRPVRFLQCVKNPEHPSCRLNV

Row | Molecule | IL-10 release [4] | neuroprotective effect against MPP+-induced DA cell death, compared with reference clone HB7 [5] | neuroprotective effect in the presence of the lysosomal exocytosis inhibitor vacuolin-1 [5] | other results
1 | Daratumumab: anti-CD38 antibody Daratumumab [reference compound] |  |  |  | neuroprotective effect in 6-OHDA model ([1]; 15 mg/kg iv one day before 6-OHDA injection): failed to demonstrate neuroprotective activity
2 | murine sCD31 (from UniProt Q08481 18-585) (ligand) |  |  |  | EC50 of prevention of MPP+-induced DA cell loss (TH+ cell survival in midbrain cultures) [2]: 0.036 µg/mL
3 | B1 |  |  |  | Brain/plasma ratio [3]: 0.385%
4 | B2 | statistically significantly increased | stronger neuroprotective effect | antagonized | 
5 | B3 | statistically significantly increased |  | antagonized | 
6 | B4 | statistically significantly increased | stronger neuroprotective effect | antagonized | protection of dopaminergic neurons of the right substantia nigra pars compacta ([1]; 0.1 mg/kg injected intracerebrally concomitantly with 6-OHDA): statistically significantly protected
7 | B5 |  | stronger neuroprotective effect |  | 
8 | B6 |  |  | antagonized | 
